US20070184522A1, “Cell death modulation via antagonists of Fasl and Fas activation” (University of Pittsburgh of the Commonwealth System of …, priority 2004, published 2007)

Experiments:
Fas-Fc / FasL binding = molecular target: T1, Fas-Fc / FasL binding (Mus musculus, UniProt P25446); assay: Competition pull down with Fas-Fc, recombinant AlphaMet and recombinant FasL
T1 construct: purchased R&D
T1 sequence (P25446 22-169 limits assumed): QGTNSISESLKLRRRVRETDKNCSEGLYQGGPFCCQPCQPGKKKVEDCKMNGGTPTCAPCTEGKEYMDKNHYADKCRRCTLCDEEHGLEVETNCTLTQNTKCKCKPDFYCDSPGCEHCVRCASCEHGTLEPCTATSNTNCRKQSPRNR
Experimental: This antibody also recognizes Fas-Fc which is also tagged at the C-terminus by His. In FIG. 2b, a fixed amount of purified recombinant Fas-ligand was added to Fas-Fc in the absence or presence of increasing amounts of AlphaMet as indicated. Samples were subjected to pull down using proteinA agarose followed by Western blot using a polyclonal rabbit anti-FasL antibody. […] Fas ligand (1 μg/ml) was coated in the wells of a microtiter plate (triplicate wells) then 1 μg/ml of Fas-Fc was added in the absence or presence of an increasing amount of the indicated polypeptide. A 13 mer YLGA polypeptide derived from FasL also was synthesized and used. The control peptide was a scrambled 13 mer. Anti human […] conjugates were used to detect the bound Fas-Fc. […] One-way ANOVA was carried out for determination of statistical significance. […] Cells (3×10^5) were plated in 24-well plates having Poly-L-Lysine pre-treated cover glass. 2 μg/ml of Fas ligand was added and the cells were incubated for 30 min on ice. Cells were then washed by PBS twice, and were subjected to immunostaining using anti-Fas ligand antibody and fluorescent microscopy. In Frame A, Fas ligand was not added, in B, only Fas ligand was added, in C-F, Fas ligand was added with different polypeptides as follows: AlphaMet, 12 mer YLGA, control peptide, and YLGA mutated AlphaMet, respectively. […]

[1] = molecular target: T2, Fas trimerization in Jurkat cells (Homo sapiens, UniProt P25445); assay: Chemical crosslinking (DTSSP) and Western blot of Fas trimerization in Jurkat cells; type: cell-based; settings: Fas Ligand 2 μg/ml, DTSSP
T2 construct: endogenous in cells; host or cells: Jurkat
T2 sequence (P25445 26-335): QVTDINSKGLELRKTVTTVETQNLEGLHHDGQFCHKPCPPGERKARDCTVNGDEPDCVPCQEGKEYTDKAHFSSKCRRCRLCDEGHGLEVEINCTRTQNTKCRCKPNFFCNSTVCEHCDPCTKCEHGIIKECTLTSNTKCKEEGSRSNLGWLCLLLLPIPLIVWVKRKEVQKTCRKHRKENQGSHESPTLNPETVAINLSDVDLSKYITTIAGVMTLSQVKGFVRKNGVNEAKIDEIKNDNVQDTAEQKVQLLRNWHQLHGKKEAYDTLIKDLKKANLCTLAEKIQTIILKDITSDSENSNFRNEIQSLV
Experimental: FIG. 3a presents data collected from Jurkat cells (1×10^6) treated with 2 μg/ml of Fas Ligand with or without AlphaMet for 30 minutes on ice. Cells were washed with PBS twice and then incubated with 2 mM of DTSSP in PBS for 30 minutes. The crosslinking process was stopped by 20 mM of Tris (pH 7.5) for another 30 minutes. Cells were spun down and washed with PBS twice and lyzed in RIPA buffer. Cell lysates were subjected to SDS-PAGE under non-reducing or reducing conditions (FIG. 3b) and Western blot analysis using the mouse monoclonal antibody against human Fas. FIG. 3c depicts the quantification of the data in FIG. 3a by densitometry. The data are the mean and SE from three different independent crosslinking and Western blot experiments. […] Frame A: Acceptor CFP-Fas image; Frame B: Acceptor pre-bleach CFP-Fas image; Frame C: Acceptor post-bleach image. Frame D: Donor YFP-Fas image; Frame E: Donor pre-bleach image; Frame F: […]. The CFP-Fas strength in the selected region obtained a gain of 19.3% efficiency in the presence of FasL for 15 minutes. No FRET was observed without FasL. […] FIG. 3e depicts the results of experiments in which CFP-tagged Fas or CFP control vector were transiently expressed in Hepa 1-6 Cells (3×10^5). […] Cells were fixed and analyzed by fluorescence microscopy. […]

B1: alpha subunit of Met (AlphaMet), amino acid residues 1 to 306, His-tagged (receptor, mouse)
chain: MKAPTVLAPGILVLLLSLVQRSHGECKEALVKSEMNVNMKYQLPNFTAETPIQNVVLHGHHIYLGATNYIYVLNDKDLQKVSEFKTGPVLEHPDCLPCRDCSSKANSSGGVWKDNINMALLVDTYYDDQLISCGSVNRGTCQRHVLPPDNSADIQSEVHCMFSPEEESGQCPDCVVSALGAKVLLSEKDRFINFFVGNTINSSYPPGYSLHSISVRRLKETQDGFKFLTDQSYIDVLPEFLDSYPIKYIHAFESNHFIYFLTVQKETLDAQTFHTRIIRFCSVDSGLHSYMEMPLECILTEKRRKRHHHHHH
- FasL binding to Fas in pull down (Fas-Fc / FasL binding; fixed FasL, increasing amounts of AlphaMet): blocked the FasL binding to Fas
- binding of AlphaMet to Fas in presence of FasL (Fas-Fc / FasL binding; increasing amounts of FasL): completely abrogated by increasing amounts of FasL
- Fas trimerization [1]: reduced the Fas trimerization to the background level
